Reference: patent publication US20220242962A1 (APTEVO RESEARCH AND DEVELOPMENT, published 2022)

Columns and labels:
Full-length Cyno OX40 = target: T1, Full-length Cyno OX40 (cynomolgus monkey, UniProt P43489 29-277 (human entry)); assay: flow cytometry on CHOK1SV cells transfected with cynomolgus OX40, goat anti-human Fc secondary antibody, MFI (Mean)
T1 construct: on CHO-K1SV cells; also called OXF004; cynomolgus OX40
T1 chain: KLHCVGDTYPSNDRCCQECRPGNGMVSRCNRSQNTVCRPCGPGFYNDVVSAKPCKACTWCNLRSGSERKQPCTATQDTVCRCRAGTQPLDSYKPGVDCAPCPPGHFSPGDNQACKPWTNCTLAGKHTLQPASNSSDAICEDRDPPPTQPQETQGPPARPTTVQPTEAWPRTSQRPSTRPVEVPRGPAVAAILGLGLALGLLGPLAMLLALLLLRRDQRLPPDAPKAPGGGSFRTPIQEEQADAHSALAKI
Procedure: (§1) Serial dilutions of ADAPTIR™ constructs were incubated with cells transfected with human or cynomolgus ECD and subsequently labelled with a fluorescently-conjugated goat-α-human Fc secondary antibody. […] (See Example 16.)

Full-length Human OX40 [1] = target: T2, Full-length Human OX40 (human, UniProt P43489 29-277); assay: cell-based or functional assay
T2 sequence: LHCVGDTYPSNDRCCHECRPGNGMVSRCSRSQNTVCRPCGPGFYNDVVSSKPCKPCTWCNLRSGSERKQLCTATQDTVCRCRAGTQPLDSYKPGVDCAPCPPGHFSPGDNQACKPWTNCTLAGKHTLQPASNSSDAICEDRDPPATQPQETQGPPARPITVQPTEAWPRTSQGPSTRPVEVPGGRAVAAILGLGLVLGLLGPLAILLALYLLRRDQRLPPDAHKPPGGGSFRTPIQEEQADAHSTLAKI

Full-length Human 4-1BB [2] = target: T3, Full-length Human 4-1BB (human, UniProt Q07011 24-255); assay: cell-based or functional assay
Full-length Human OX40 [3] = target: T2, Full-length Human OX40; assay: flow cytometry, CHO cells expressing human OX40
Human 4-1BB ECD-AFH = target: T4, Human 4-1BB ECD-AFH (human); assay: SPR (T200), construct captured, monomeric ECD as analyte
T4 construct: entry includes the tags; also called FOB003; HUMAN CD137 ECD-AVI-FLAG-HIS
Procedure: (§2) Mouse anti-human IgG (GE, BR-1008-39) at 25 μg/ml in 10 mM sodium acetate pH 5.0 was immobilized at a density of ˜10,000 response units (RU) onto each flow cell of a CM5 research-grade sensor chip (GE) by standard amine coupling chemistry. Each binding protein at approximately 100 nM in HBS-EP+ with 0.2% BSA buffer was captured in a flow cell with the immobilized anti-human IgG at a flow rate of 10 μL/min for 20 seconds, leaving one flow cell surface unmodified as the reference. Using a single-cycle kinetics mode, five different concentrations of ECD were sequentially injected through each flow cell at 30 μL/min for 300 seconds followed by a 600 second dissociation period. Regeneration was achieved by injection of 3 M MgCl₂ at a flow rate of 30 μL/min for 30 seconds followed by HBS-EP+ with 0.2% BSA buffer stabilization for 1 min.
(§3) Sensorgrams obtained from kinetic SPR measurements were analyzed by the double subtraction method. The signal from the reference flow cell was subtracted from the analyte binding response obtained from flow cells with immobilized or captured ligands. Buffer reference responses were then averaged from multiple injections. The averaged buffer reference responses were then subtracted from analyte binding responses, and the final double-referenced data were analyzed with Biacore T200 Evaluation software (2.0, GE), globally fitting data to derive kinetic parameters. All sensorgrams were fitted using a simple one-to-one binding model.

Human OX40 ECD-AFH = target: T5, Human OX40 ECD-AFH (human); assay: as above
T5 construct: ECD'; entry includes the C-terminal tags; also called OXF003; Human OX40 ECD-avi-flag-his
T5 chain: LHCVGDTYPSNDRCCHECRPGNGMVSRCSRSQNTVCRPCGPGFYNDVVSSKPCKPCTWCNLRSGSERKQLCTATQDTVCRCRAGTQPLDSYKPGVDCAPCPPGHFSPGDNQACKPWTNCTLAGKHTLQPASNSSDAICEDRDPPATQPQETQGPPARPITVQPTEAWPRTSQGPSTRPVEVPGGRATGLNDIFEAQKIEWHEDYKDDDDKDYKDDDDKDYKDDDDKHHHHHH
Procedure: as §2, §3

Full-length Cyno 4-1BB = target: T6, Full-length Cyno 4-1BB (cynomolgus monkey, UniProt Q07011 24-255 (human entry)); assay: flow cytometry on Jurkat cells transfected with cynomolgus 4-1BB, goat anti-human Fc secondary antibody, MFI (Mean)
T6 construct: on Jurkat or CHO cells; also called FOB006; cynomolgus 4-1BB
T6 chain: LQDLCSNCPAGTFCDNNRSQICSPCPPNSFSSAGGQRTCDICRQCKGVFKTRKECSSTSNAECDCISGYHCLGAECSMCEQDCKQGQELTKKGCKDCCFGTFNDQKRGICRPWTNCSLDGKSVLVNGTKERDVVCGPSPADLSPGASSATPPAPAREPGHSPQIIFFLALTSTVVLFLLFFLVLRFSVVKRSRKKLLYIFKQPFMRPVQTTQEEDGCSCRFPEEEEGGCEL
Procedure: as §1

Full-length Human 4-1BB [4] = target: T3, Full-length Human 4-1BB; assay: flow cytometry, Jurkat cells expressing human 4-1BB
Procedure: as §1

T4 sequence (chain, as listed by the source limits assumed): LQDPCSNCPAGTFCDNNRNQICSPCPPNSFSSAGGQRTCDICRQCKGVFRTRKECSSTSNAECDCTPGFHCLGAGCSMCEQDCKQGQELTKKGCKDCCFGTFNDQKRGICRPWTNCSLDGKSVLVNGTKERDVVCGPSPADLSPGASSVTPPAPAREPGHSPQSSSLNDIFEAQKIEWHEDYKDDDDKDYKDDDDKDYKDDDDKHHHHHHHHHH

| Binder | EC50 (read off the curve) (Full-length Cyno OX40) | OX40 Reporter Assay EC50 (Full-length Human OX40 [1]) | OX40 Reporter Assay Max induction (Full-length Human OX40 [1]) | 4-1BB Reporter Assay EC50 (Full-length Human 4-1BB [2]) | 4-1BB Reporter Assay Max induction (Full-length Human 4-1BB [2]) | EC50 (Full-length Human OX40 [3]) | Max MFI (Full-length Human OX40 [3]) | Kd (Human 4-1BB ECD-AFH) | koff (Human 4-1BB ECD-AFH) | kon (Human 4-1BB ECD-AFH) | Kd (Human OX40 ECD-AFH) | koff (Human OX40 ECD-AFH) | kon (Human OX40 ECD-AFH) | EC50 (read off the curve) (Full-length Cyno 4-1BB) | EC50 (Full-length Human 4-1BB [4]) | Max MFI (Full-length Human 4-1BB [4]) |
| --- | --- | --- | --- | --- | --- | --- | --- | --- | --- | --- | --- | --- | --- | --- | --- | --- |
| FXX01047 (bispecific antibody, ADAPTIR scFv-Fc-scFv, anti-4-1BB N-terminal, anti-OX40 C-terminal; also called FX01047) EVQLVQSGAEVKKPGASVKVSCKASGYTFTSYWMNWVRQAPGQGLEWMGNIYPGSSTTNYAQKFQGRVTMTVDTSTSTVYMELSSLRSEDTAVYYCASFSDGYYAYAMDYWGQGTLVTVSSGGGGSGGGGSGGGGSGGGGSEIVMTQSPATLSLSPGERATLSCRASQDISNYLNWYQQKPGQAVRLLIYYTSRLHSGIPARFSGSGSGTDYTLTISSLQPEDFAVYFCQQGYTLPYTFGQGTKVEIKEPKSSDKTHTCPPCPAPPAAAPSVFLFPPKPKDTLMISRTPEVTCVVVDVSHEDPEVKFNWYVDGVEVHNAKTKPREEQYNSTYRVVSVLTVLHQDWLNGKEYKCAVSNKALPAPIEKTISKAKGQPREPQVYTLPPSRDELTKNQVSLTCLVKGFYPSDIAVEWESNGQPENNYKTTPPVLDSDGSFFLYSKLTVDKSRWQQGNVFSCSVMHEALHNHYTQKSLSLSPGGGGSPSSYVLTQPPSVSVAPGQTARITCGGNNIGSKSVNWFQQKPGQAPVLVVYDDSGRPSGIPERFSGSTSGNTATLTISRVEAGDEADYYCQVWDSSSDHVVFGGGTKLTVLGGGGSGGGGSGGGGSGGGGSQVQLVESGGGVVQPGRSLRLSCAASGFTLSYYGMHWVRQAPGKGLEWVAAISHDGSDKYYADSVKGRFTISRDNSKNTLYLQMNSLRAEDTAVYYCSNDQFDPWGQGTLVTVSSR | ~2 nM | 10 pM | 1.97e+06 | 14 pM | 6.58e+06 | 0.35 nM | 10500 MFI | 7 nM | 0.002 s⁻¹ | 280000 M⁻¹ s⁻¹ | 0.4 nM | 0.00016 s⁻¹ | 400000 M⁻¹ s⁻¹ | ~0.6 nM | 0.32 nM | 4940 MFI |
| FXX01055 (bispecific antibody, ADAPTIR scFv-Fc-scFv, anti-OX40 N-terminal, anti-4-1BB C-terminal; also called FX01055) SYVLTQPPSVSVAPGQTARITCGGNNIGSKSVNWFQQKPGQAPVLVVYDDSGRPSGIPERFSGSTSGNTATLTISRVEAGDEADYYCQVWDSSSDHVVFGGGTKLTVLGGGGSGGGGSGGGGSGGGGSQVQLVESGGGVVQPGRSLRLSCAASGFTLSYYGMHWVRQAPGKGLEWVAVISHDGSDKYYADSVKGRFTISRDNSKNTLYLQMNSLRAEDTAVYYCSNDQFDPWGQGTLVTVEPKSSDKTHTCPPCPAPPAAAPSVFLFPPKPKDTLMISRTPEVTCVVVDVSHEDPEVKFNWYVDGVEVHNAKTKPREEQYNSTYRVVSVLTVLHQDWLNGKEYKCAVSNKALPAPIEKTISKAKGQPREPQVYTLPPSRDELTKNQVSLTCLVKGFYPSDIAVEWESNGQPENNYKTTPPVLDSDGSFFLYSKLTVDKSRWQQGNVFSCSVMHEALHNHYTQKSLSLSPGGGGSPSEVQLVQSGAEVKKPGASVKVSCKASGYTFTSYWMNWVRQAPGQGLEWMGNIYPGSSTTNYAQKFQGRVTMTVDTSTSTVYMELSSLRSEDTAVYYCASFSDGYYAYAMDYWGQGTLVTVSSGGGGSGGGGSGGGGSGGGGSEIVMTQSPATLSLSPGERATLSCRASQDISNYLNWYQQKPGQAVRLLIYYTSRLHSGIPARFSGSGSGTDYTLTISSLQPEDFAVYFCQQGYTLPYTFGQGTKVEIKR | ~2 nM | 13 pM | 2.03e+06 | 13 pM | 6.82e+06 | 0.4 nM | 10400 MFI | 21 nM | 0.0018 s⁻¹ | 84000 M⁻¹ s⁻¹ | 0.3 nM | 0.00013 s⁻¹ | 440000 M⁻¹ s⁻¹ | ~1 nM | 0.27 nM | 4750 MFI |
